# T1: LEAI.480
# T1 chain: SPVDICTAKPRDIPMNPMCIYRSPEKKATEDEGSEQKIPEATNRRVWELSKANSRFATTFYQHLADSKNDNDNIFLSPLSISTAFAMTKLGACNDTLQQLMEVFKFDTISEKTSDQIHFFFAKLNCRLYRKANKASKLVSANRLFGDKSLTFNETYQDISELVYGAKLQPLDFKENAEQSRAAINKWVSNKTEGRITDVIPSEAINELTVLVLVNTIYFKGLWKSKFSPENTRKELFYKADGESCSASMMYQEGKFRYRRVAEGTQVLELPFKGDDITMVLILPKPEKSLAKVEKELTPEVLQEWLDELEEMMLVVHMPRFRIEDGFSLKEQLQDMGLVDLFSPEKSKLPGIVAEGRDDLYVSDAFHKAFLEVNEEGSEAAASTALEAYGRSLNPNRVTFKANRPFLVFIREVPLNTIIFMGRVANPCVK
# T2: LEAI.474
# T2 chain: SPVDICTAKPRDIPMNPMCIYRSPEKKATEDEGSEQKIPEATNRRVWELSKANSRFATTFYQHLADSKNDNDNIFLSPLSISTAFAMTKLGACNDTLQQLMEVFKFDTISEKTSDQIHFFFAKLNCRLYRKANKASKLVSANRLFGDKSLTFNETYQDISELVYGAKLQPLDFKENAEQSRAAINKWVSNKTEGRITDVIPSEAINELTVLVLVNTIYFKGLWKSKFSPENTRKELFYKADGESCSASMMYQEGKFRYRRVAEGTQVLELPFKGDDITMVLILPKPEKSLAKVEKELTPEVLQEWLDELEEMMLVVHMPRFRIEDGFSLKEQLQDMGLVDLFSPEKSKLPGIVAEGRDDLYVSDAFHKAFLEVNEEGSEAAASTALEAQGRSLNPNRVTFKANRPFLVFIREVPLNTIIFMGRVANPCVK
# T3: LEAI.472
# T3 chain: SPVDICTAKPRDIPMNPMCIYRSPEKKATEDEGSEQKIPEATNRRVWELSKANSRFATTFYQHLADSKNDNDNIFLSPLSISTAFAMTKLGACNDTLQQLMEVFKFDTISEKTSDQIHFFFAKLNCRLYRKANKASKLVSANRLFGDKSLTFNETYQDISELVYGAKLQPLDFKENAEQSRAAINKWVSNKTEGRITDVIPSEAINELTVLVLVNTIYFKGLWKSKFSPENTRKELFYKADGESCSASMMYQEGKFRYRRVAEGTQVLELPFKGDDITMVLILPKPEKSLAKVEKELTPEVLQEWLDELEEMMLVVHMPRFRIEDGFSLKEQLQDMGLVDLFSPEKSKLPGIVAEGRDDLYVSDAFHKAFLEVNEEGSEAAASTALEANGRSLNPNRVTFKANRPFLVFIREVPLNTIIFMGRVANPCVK
# T4: LEAI.482
# T4 chain: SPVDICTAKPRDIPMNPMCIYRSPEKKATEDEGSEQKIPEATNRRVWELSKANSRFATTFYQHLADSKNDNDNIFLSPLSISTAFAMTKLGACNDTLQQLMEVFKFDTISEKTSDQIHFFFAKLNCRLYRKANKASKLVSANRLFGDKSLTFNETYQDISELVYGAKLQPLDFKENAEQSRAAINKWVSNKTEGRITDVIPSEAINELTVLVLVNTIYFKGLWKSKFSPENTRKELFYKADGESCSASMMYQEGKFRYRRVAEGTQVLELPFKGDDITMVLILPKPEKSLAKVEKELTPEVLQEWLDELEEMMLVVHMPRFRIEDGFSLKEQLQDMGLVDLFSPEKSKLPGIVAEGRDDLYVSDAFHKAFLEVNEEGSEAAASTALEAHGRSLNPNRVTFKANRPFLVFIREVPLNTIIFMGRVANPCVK
# Assays:
# [1] = target: plasma-derived ATIII, P01008
# [2] = target: T1, LEAI.480
# [3] = target: T2, LEAI.474
# [4] = target: T3, LEAI.472
# [5] = target: T4, LEAI.482
Protein,"Substrate: halflife, min, HNE [1] [min]","Substrate: halflife, min, HNE [2] [min]",halflife HNE/hep as a percentage of plasma ATIII value [2] [%],"Substrate: halflife, min, HNE [3] [min]",halflife HNE/hep as a percentage of plasma ATIII value [3] [%],"Substrate: halflife, min, HNE [4] [min]",halflife HNE/hep as a percentage of plasma ATIII value [4] [%],"Substrate: halflife, min, HNE [5] [min]",halflife HNE/hep as a percentage of plasma ATIII value [5] [%],"Substrate: halflife, min, CatG [2] [min]","Substrate: halflife, min, CatG [3] [min]","Substrate: halflife, min, CatG [4] [min]","Substrate: halflife, min, CatG [5] [min]"
human neutrophil elastase (protein) IVGGRRARPHAWPFMVSLQLRGGHFCGATLIAPNFVMSAAHCVANVNVRAVRVVLGAHNLSRREPTRQVFAVQRIFENGYDPVNLLNDIVILQLNGSATINANVQVAQLPAQGRRLGNGVQCLAMGWGLLGRNRGIASVLQELNVTVVTSLCRRSNVCTLVRGRQAGVCFGDSGSPLVCNGLIHGIASFVRGGCASGLYPDAFAPVAQFVNWIDSIIQ,2.9,19.9,686,38.4,1324,30.1,1038,25.3,872,–,–,–,–
human neutrophil cathepsin G (protein) IIGGRESRPHSRPYMAYLQIQSPAGQSRCGGFLVREDFVLTAAHCWGSNINVTLGAHNIQRRENTQQHITARRAIRHPQYNQRTIQNDIMLLQLSRRVRRNRNVNPVALPRAQEGLRPGTLCTVAGWGRVSMRRGTDTLREVQLRVQRDRQCLRIFGSYDPRRQICVGDRRERKAAFKGDSGGPLLCNNVAHGIVSYGKSSGVPPEVFTRVSSFLPWIRTTMRS,–,–,–,–,–,–,–,–,–,35.8,> 300,333,> 240

# Source: US20060259987
